# Test results reported in patent US8703459B2, “Catalytic domains of beta(1,4)-galactosyltransferase I having altered metal ion specificity” (The United States of America, as represented by the …, priority 2003, dated 2014).
# Substitutions are numbered along the chain they refer to. In names and notes the source's numbering stands. Marks after values point to notes of the source that are not given here.
# B1: M344E-Gal-T1: bovine β4Gal-T1 catalytic domain (C342T) with Met344 mutated to glutamic acid (protein, listed as Bos taurus)
# chain: MKFREPLLGGSAAMPGASLQRACRLLVAVCALHLGVTLVYYLAGRDLRRLPQLVGVHPPLQGSSHGAAAIGQPSGELRLRGVAPPPPLQNSSKPRSRAPSNLDAYSHPGPGPGPGSNLTSAPVPSTTTRSLTACPEESPLLVGPMLIEFNIPVDLKLIEQQNPKVKLGGRYTPMDCISPHKVAIIILFRNRQEHLKYWLYYLHPMVQRQQLDYGIYVINQAGESMFNRAKLLNVGFKEALKDYDYNCFVFSDVDLIPMNDHNTYRCFSQPRHISVAMDKFGFSLPYVQYFGGVSALSKQQFLSINGFPNNYWGWGGEDDDIYNRLAFRGMSVSRPNAVIGKCREIRHSRDKKNEPNPQRFDRIAHTKETMLSDGLNSLTYMVLEVQRYPLYTKITVDIGTPS
# B2: M344A: Met344 mutant of β4Gal-T1, Met344 to Ala (protein, listed as Bos taurus)
# chain: B1 chain with E344A
# B3: M344Q: Met344 mutant of β4Gal-T1, Met344 to Gln (protein, listed as Bos taurus)
# chain: B1 chain with E344Q
# B4: M344S: Met344 mutant of β4Gal-T1 (protein, listed as Bos taurus)
# chain: B1 chain with E344S
# Test: β4Gal-T enzyme assay, specific activity in the presence of various metal ions
# Format: biochemical, bovine
# Settings: 0.1 mM Co^2+, 500 μM UDP-Gal, 25 mM GlcNAc
# Experimental: Protein concentrations were measured using the Bio-Rad Protein Assay kit, based on the method of Bradford and further verified on SDS-PAGE gels using standard protein concentration markers. An in vitro assay procedure for Gal-T1 has been reported previously (Ramakrishnan et al., J. Mol. Biol., 310:205 (2001)). The activities were measured using UDP-Gal as sugar nucleotide donor, and GlcNAc as the acceptor sugar. For the specific activity measurements, a 100 μL incubation mixture containing 25 mM GlcNAc, 5 mM MnCl2 or MgCl2, 20 mM Tris-HCl pH 8.0, 500 μM UDP-Gal, 500 ng M344H-Gal-T1 or 30 ng of C342T-Gal-T1 and 0.5 μCi ^3H-UDP-Gal was used for each Gal-T reaction. The incubation was carried out at 30° C. for 15 minutes. The reaction was terminated by adding of 200 μl cold water, and the mixture was passed through a 0.5 mL bed volume column of AG 1-X8 […] resin (Bio-Rad) to remove any unreacted ^3H-UDP-Gal. The column was washed successively with 300, 400 and 500 μl of cold water, and the column flow-through was diluted with Biosafe scintillation fluid; radioactivity was measured with a Beckman counter. A reaction without the acceptor sugar was used as a control. Only 0.1 mM concentration of ZnCl2 or CoCl2 was used whenever Zn^2+ or Co^2+ was used during the enzyme assay.
row,Molecule,Catalytic Activity in the Presence of Various Metal Ions: Co
1,B1,0.24 picomoles per minute per nanogram
2,B2,0.61^b picomoles per minute per nanogram
3,B3,0.80^b picomoles per minute per nanogram
4,B4,0.41 picomoles per minute per nanogram

# Same assay, conditions: 0.1 mM Zn^2+, 500 μM UDP-Gal, 25 mM GlcNAc
row,Molecule,Catalytic Activity in the Presence of Various Metal Ions: Zn
1,B1,0.27 picomoles per minute per nanogram
2,B2,0.64 picomoles per minute per nanogram
3,B3,0.71 picomoles per minute per nanogram
4,B4,0.40 picomoles per minute per nanogram

# Same assay, conditions: 5 mM metal ion, 500 μM UDP-Gal, 25 mM GlcNAc
Molecule,Catalytic Activity in the Presence of Various Metal Ions: Ca,Catalytic Activity in the Presence of Various Metal Ions: Mg,Catalytic Activity in the Presence of Various Metal Ions: Mn,Catalytic Activity in the Presence of Various Metal Ions: Sr
B1,0.01 picomoles per minute per nanogram,0 picomoles per minute per nanogram,0.32 picomoles per minute per nanogram,0.02 picomoles per minute per nanogram
B2,0 picomoles per minute per nanogram,0 picomoles per minute per nanogram,4.16 picomoles per minute per nanogram,0 picomoles per minute per nanogram
B3,0 picomoles per minute per nanogram,0 picomoles per minute per nanogram,1.91 picomoles per minute per nanogram,0 picomoles per minute per nanogram
B4,0 picomoles per minute per nanogram,0 picomoles per minute per nanogram,1.97 picomoles per minute per nanogram,0 picomoles per minute per nanogram

# Test: Metal ion activation curve, metal binding constants for Mn^2+
# Format: biochemical, bovine
# Settings: Mn^2+
# Text: The activation curve of M344E-Gal-T1, using Mn^2+, is strikingly different from that of the wild-type enzyme (FIGS. 1A and 1B). In contrast to the wild type enzyme, the velocity curve obtained with the Mn^2+ concentration for the M344E-Gal-T1 mutant is not sigmoidal. On the other hand, the same curve for the M344H-Gal-T1 mutant in the presence of the Mg^2+ is sigmoidal (FIG. 1C). The observation that activation of the wild type enzyme by metal ions is sigmoidal has been interpreted as involving two metal binding sites in the enzyme: one with high affinity (Kd1), which is associated with low velocity, and a second site with low affinity (Kd2), which is associated with high velocity (Powell and Brew, J. Biol. Chem., 251:3645 (1976); Boeggeman and Qasba, Glycobiology, 12:395 (2002)). […] The values of the dissociation constant (Kd) for Mn^2+ of the mutant are quite different from that of the wild type (Table IV).
# The enzyme activation data at various concentrations of Mg^2+ were fitted to an equation describing metal binding to a high affinity site (K1) to generate an enzyme form with a low kcat (V1) and to a second, lower affinity site (K2) to generate a form with a higher kcat (V2) (Boeggeman and Qasba, Glycobiology, 12:395 (2002)): […]
row,Molecule,K1 compared with binding to the primary site of the wild type
1,B1,fifty-fold lower

# Same assay, conditions: single metal binding site model, derived from FIG. 1B; read-out: binding constant K1 for Mn^2+
row,Molecule,Kd
1,B1,500 nM
